{
  "source": "the DeepSol protein solubility set",
  "data": [
    {"assay": "soluble on expression in E. coli; label from the status in PepcDB or PDB records", "values": [
      {"sequence": "MGAQNSKRKDLKNINDEDYAHFMEKLKKHTDGKDKMTRDQFVAMFIPILGEYSSQFYFRLVKNEPQGVLLAKTILKCIDTGLGHFDQLADMLRFCFGDQKDQIMRNVVKIFCEGNKFTREDQVRLYDYFETENTKPVSELESFFSMCPLFAYCASFIFQRLLDKTGDSKMPILSDKTHLMGNIDQLVLNSHLPFDRRKNWTLLYSNMKHGQSFSQLVKCINGEGPCMIVIRSMKGRRFGFFASQGFLAGPQYRGTAECFLFQLAPKIATFDATGRTENYVYLNYQQQQHPNGLGIGGTESVWPLFIHEEFGGGTCQKNSSSFEPCHIAEEDEFKIKTIEAWRPGDKPQKSFEEQILLEERSPEKSIIDKDPEARAVLELAGKSMHSEAYRDPAPLLDGE", "soluble on expression in E. coli": "not soluble"},
      {"sequence": "MGCGFSRQHVVKTNVSSFDRELLDLKIQRDSLQQYEQRLSDSLKNYIKLARRLVAENQRQQALVVLQVKHALQKSIEKAQNMRFNLEQVLSEIELKQIETDYVLKLRTGTKLLQSIQKTLSIEEIEHLLEETKEAIEFQNKVTEVLGSFSLMEIDESCEEELEQLETAMFPPVPKRLEKTMTPQVTENMQVKSETAKEYSKQESILLPS", "soluble on expression in E. coli": "soluble"},
      {"sequence": "MGDITNEMIWQAIKELAEQLQQTNGQVQQLSQQVQQTNEQVQQLGQQIQHLNSQVQQLNHQVQQTHEQVGQLAKQVQQTNEQLNQLSQQVADMDKRLTDVANGQNILVEELFENKKEIKRVKTALNMY", "soluble on expression in E. coli": "not soluble"},
      {"sequence": "MGDNQVTGGDIHKLWMTAHMDISAVEDAYIKLTEQLDGDVAEGDEGKYGKAFDSWNIYREIVQLALFRTAVSARATRLALDLAVSEFTFVDGDAANGITDAGKEFLEAVGDENQTPPEYVVEPEGDPVAPLGNDE", "soluble on expression in E. coli": "not soluble"},
      {"sequence": "MGDPVEGKGGPQPRGGKKKDADDEKNAWEEGDFIDEKELKGALQLGVLKTADSVALRAGERNGLDMVVEEDVVSQVGALVWDTVAQDWADDLARFVAHAGRQRVNMDDISLLTRRNPDLLRAACELAGVDCPQETSGGTKGKPRKRKKDDVTVAPMLRAAPSAPNSQNAPLLAPIQEEDDENDDDDEITILDDQILHTPQQKSYSKKAKFSEEEAPSSRKRISTSTPKTTAERTLKFPDEITPIRQPNDLQEIVVFNRANLSAIEEEEQQDSFDAFGTTGGNDSSSKTITNTSSLLRQAEEHRSSIVEPTKDRIEKERLDRLVPDDEEFENASVDSFDNFNAEPDPAPAPALAPVPEKRTSVFSKKICSFDFDDDDGDDSFDEPVVVVAEVPKLPVQQQKTPKASGSESKKKPEKRPESSTPSVFSKKNKTIQLDDHDSFDDFDFGI", "soluble on expression in E. coli": "not soluble"},
      {"sequence": "MGDYENVLMVKPKVFVYRIPPIGTSGHKAADWNLDSPAWTGRMRLVAIGKRLEMRLEDGETCDLYAKCPIDAHPGNAIEAVSDSSRYFVIRLQNDNGQQAFVGCGFQERGDAFDFNVTLQDHFRYIERSAELEKQDLSAGPSLDLAFKEGQTISINIGKKDKSAVSRPRPAPGASTGGLVPLLPPPPGAGSMIRNSRPSTTTTTASSSLSSAFAAPPPAPSSSTSTTATSGNLLDF", "soluble on expression in E. coli": "not soluble"},
      {"sequence": "MGESFTQAVVEGPQPKPSRFQFVPVPGEFTRGRWKCRDSYHPNAETLEFEKNKSKEEETNPDKISVFFKLRQQQQEPEPEPEPPQPPPQESTIQVTSVKSTRPDTGDPGDSEVVTTDSTESIIITRKNGVTIVRKTSNSLLLPDEKYDQIRQLSIDDFENKEKKQQVPPTPMNTPPASLAVVDTSIQSTTSETTPGHSSSRKPSKEDSSPFDASSATPAPSQLETPQQQKPTTTRHFQVEPVVLSEPSTPAPVAPAPSIETLTSTSPPVTQQLAPSLSEPTFQVIQTEESKNMSMDSVKNVVDAAALSAPAPAPLSQSDRLNHVDEVEGTTPSNVMITVSSAAAALEKKEEAAFAAAGSLDSCGIPISGGGAAAQTSAPHSTPYGTPKDTHIQQQQQPVVFEEILTANGPPPQPSSPLLPALITTTTSAPTIAPASSPIINASGSSIPAASTSGISLFPSGGVTSSLTTPSTTADTHTPIDNKIEQAMELVKTHLTYAVREEVDTLRNTIAELEYQMRESQYECTYYRQNCAPDLIEQASSFVHQQMASHQRPAARRAVSTAGIFDGSSSGGGGGQASSGASASASSAHMRNLQNQIQQMKQITPITTNTCINSTSTSTTAYTSTPTASIPAATAITTTTAPPKPSPTTSESSLITGDLGAPAGAVAQKMTTTNN", "soluble on expression in E. coli": "not soluble"},
      {"sequence": "MGFAFKRGISTPDLALITRQLATLVQSGMPLEECLRAVAEQSEKPRIRTMLVAVRAKVTEGYTLSDSLGDYPHVFDELFRSMVAAGEKSGHLDSVLERLADYAENRQKMRSKLQQASENLYFQ", "soluble on expression in E. coli": "soluble"},
      {"sequence": "MGFDLDVEKKKENRNIPQANNLKIKVIGVGGAGNNAINRMIEIGIHGVEFVAVNTDLQVLEASNADVKIQIGENITRGLGAGGRPEIGEQAALESEEKIREVLQDTHMVFITAGFGGGTGTGASPVIAKIAKEMGILTVAIVTTPFYFEGPERLKKAIEGLKKLRKHVDTLIKISNNKLMEELPRDVKIKDAFLKADETLHQGVKGISELITKRGYIRLTSRFARIESVMKDAGAAILGIGVGKGEHRAREAAKKAMESKLIEHPVENASSIVFNITAPSNIRMEEVHEAAMIIRQNSSEDADVKFGLIFDDEVPDDEIRVIFIATRFPDEDKILFPEGDIPAIYRYGLEGLL", "soluble on expression in E. coli": "soluble"},
      {"sequence": "MGGDADSPRERIEALAEDDHVEMRRAVDSAITSDAAAIIVIAGVGGATGSVIAPKLTDALQRIYDRPVYAVSVLPATHEEVPPENPARAIAAFESAANAQLVFDNDAWVDDRNDVEDVTDGLNAELAMRLGALFSAGEAVTAESVGQRVVDASEVISTLDEGGLATIGFARQPLGTDGDDGSLLDRARELVGMDETTVDEVESIKAVETTLRQATNGRLTFDCPRDAARSGLLVVSGPPEWLHQTAVSDGQSWLADEIGSVQLRTGDNPMPGGDELTILVLLGGIRGAPRIKEIQAATDLEHHHHHH", "soluble on expression in E. coli": "not soluble"},
      {"sequence": "MGGGHFAASNALKTAFLQKDPQAKVEIVDTLKIISPILDKLAVGTYLKAIKTVPFIYGLVYDSTDKDPPTRFSKAIYEKFYFAFYKLYNIISELNPDVIIGTHPSPIDMVSQLKKRGNINVPIISIVTDFTIHPYWINEYADYIIVHHENLVYEAVKKGAPGKKVIPLGIPLEHHHHHH", "soluble on expression in E. coli": "not soluble"},
      {"sequence": "MGGSHHHHHHGMASALAAKVDLSTSTDWKEAKSFLKGLSDKQREEHYFCKDFVRLKKIPTWKEMAKGVAVKVEEPRYKKDKQLNEKISLLRSDITKLEVDAIVNAANSSLLGGGGVDGCIHRAAGPLLTDECRTLQSCKTGKAKITGGYRLPAKYVIHTVGPIAYGEPSASQAAELRSCYLSSLDLLLEHRLRSVAFPCISTGVFGYPCEAAAEIVLATLREWLEQHKDKVDRLIICVFLEKDEDIYRSRLPHYFPVA", "soluble on expression in E. coli": "not soluble"},
      {"sequence": "MGGSHHHHHHGMASALQRVSGLLSWTLSRVLWLSGLSEPGAARQPRIMEEKALEVYDLIRTIRDPEKPNTLEELEVVSESCVEVQEINEEEYLVIIRFTPTVPHCSLATLIGLCLRVKLQRCLPFKHKLEIYISEGTHSTEEDINKQINDKERVAAAMENPNLREIVEQCVLEPD", "soluble on expression in E. coli": "not soluble"},
      {"sequence": "MGGSHHHHHHRSESTVTEELKEGIDAVYPSLVGTADSKAEGIKNYFKLSFTLPEEQKSRTVGSEAPLKDVAQALSSRARYELFTEKETANPAFNGEVIKRYKELMEHGEGIADILRSRLAKFLNTKDVGKRFAQGTEANRWVGGKLLNIVEQDGDTFKYNEQLLQTAVLAGLQWRLTATSNTAIKDAKDVAAITGIDQALLPEGLVEQFDTGMTLTEAVSSLAQKIESYWGLSRNPNAPLGYTKGIPTAMAAEILAAFVESTDVVENIVDMSEIDPDNKKTIGLYTITELDSFDPINSFPTAIEEAVLVNPTEKMFFGDDIPPVANTQLRNPAVRNTPEQKAALKAEQATEFYVHTPMVQFYETLGKDRILELMGAGTLNKELLNDNHAKSLEGKNRSVEDSYNQLFSVIEQVRAQSEDISTVPIHYAYNMTRVGRMQMLGKYNPQSAKLVREAILPTKATLDLSNQNNEDFSAFQLGLAQALDIKVHTMTREVMSDELTKLLEGNLKPAIDMMVEFNTTGSLPENAVDVLNTALGDRKSFVALMALMEYSRYLVAEDKSAFVTPLYVEADGVTNGPINAMMLMTGGLFTPDWIRNIAKGGLFIGSPNKTMNEHRSTADNNDLYQASTNALMESLGKLRSNYASNMPIQSQIDSLLSLMDLFLPDINLGENGALELKRGIAKNPLTITIYGSGARGIAGKLVSSVTDAIYERMSDVLKARAKDPNISAAMAMFGKQAASEAHAEELLARFLKDMETLTSTVPVKRKGVLELQSTGTGAKGKINPKTYTIKGEQLKALQENMLHFFVEPLRNGITQTVGESLVYSTEQLQKATQIQSVVLEDMFKQRVQEKLAEKAKDPTWKKGDFLTQKELNDIQASLNNLAPMIETGSQTFYIAGSENAEVANQVLATNLDDRMRVPMSIYAPAQAGVAGIPFMTIGTGDGMMMQTLSTMKGAPKNTLKIFDGMNIGLNDITDASRKANEAVYTSWQGNPIKNVYESYAKFMKNVDFSKLSPEALEAIGKSALEYDQRENATVDDIANAASLIERNLRNIALGVDIRHKVLDKVNLSIDQMAAVGAPYQNNGKIDLSNMTPEQQADELNKLFREELEARKQKVAKA", "soluble on expression in E. coli": "soluble"},
      {"sequence": "MGHHHHHHDTDIPTTENLTFQGACRLVANCRDVRCRRLLRNVMPVAGSELPRRPLPPAAQERDAEPRPPHGELQYLGQIQHILRCGVRKDDRTGTGTLSVFGMQARYSLRDEFPLLTTKRVFWKGVLEELLWFIKGSTNAKELSSKGVKIWDANGSRDFLDSLGFSTREEGDLGPVYGFQWRHFGAEYRDMESDYSGQGVDQLQRVIDTIKTNPDDRRIIMCAWNPRDLPLMALPPCHALCQFYVVNSELSCQLYQRSGDMGLGVPFNIASYALLTYMIAHITGLKPGDFIHTLGDAHIYLNHIEPLKIQLQREPRPFPKLRILRKVEKIDDFKAEDFQIEGYNPHPTIKMEMAV", "soluble on expression in E. coli": "soluble"},
      {"sequence": "MGHHHHHHHHHSSGHIDDDDKHMLEASAKATMGQGEQDHFVLKSGHAMPAVGLGTWRAGSDTAHSVRTAITEAGYRHVDTAAEYGVEKEVGKGLKAAMEAGIDRKDLFVTSKIWCTNLAPERVRPALENTLKDLQLDYIDLYHIHWPFRLKDGAHMPPEAGEVLEFDMEGVWKEMENLVKDGLVKDIGVCNYTVTKLNRLLRSAKIPPAVCQMEMHPGWKNDKIFEACKKHGIHITAYSPLGSSEKNLAHDPVVEKVANKLNKTPGQVLIKWALQRGTSVIPKSSKDERIKENIQVFGWEIPEEDFKVLCSIKDEKRVLTGEELFVNKTHGPYRSARDVWDHEN", "soluble on expression in E. coli": "soluble"},
      {"sequence": "MGHHHHHHSHAQHNYVISLTTEQKRRKHITEEFGKQNIPFEFFDAITPDIIEETAKKFNITLDRSPKAKLSDGEIGCALSHIVLWDLALENNLNYINIFEDDIHLGENAKELLEIDYISDDIHVLKLEANGKMFFKQPKSVKCDRNVYPMTVKQSGCAGYTVTAKGAKYLLELVKNKPLDVAVDSLV", "soluble on expression in E. coli": "soluble"},
      {"sequence": "MGHHHHHHSHDDSSEWGNSFFWNQLLHVPLRQHQVSCCDWLLKIICGVVTIRTVYASHKQAKACLVSRVSCERTGTRFHTRGVNDDGHVSNFVETEQMIYMDDGVSSFVQIRGSVPLFWEQPGLQVGSHHLRLHRGLEANAPAFDRHMVLLKEQYGQQVVVNLLGSRGGEEVLNRAFKKLLWASCHAGDTPMINFDFHQFAKGG", "soluble on expression in E. coli": "not soluble"},
      {"sequence": "MGHHHHHHSHDSLAEFKVPLILFSGGEPLLREDIFEIAGYAKKKGIKSVLSTNGTLIDRDMAENLKVFEYVGVSLDGVASTNDRFRGVEGAYERAFKGLLMASEVVLSGIRFTVSKYNYKDVFSLIELAREHEIPRFCLYHLVPSGRAEFKDDITNEQRRALLDNLLREAEKEGMEIMTVDNPADGIYTYLKLKEADSEKAEMALEFLKFRGGDSSGIRLANIDHQGNVHPNQFW", "soluble on expression in E. coli": "soluble"}
    ]}
  ]
}
